Source: the supplement of paper PMC12764529
± gives the half width of the 95% confidence interval.

What was measured:
[1] = folding stability dG unfold from trypsin proteolysis; higher = more stable
Procedure, shortened: (§1)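 Sequencing followed digestion of designed mini-proteins with trypsin and chymotrypsin, each at 11 concentrations in threefold dilutions together with a no-protease condition. The mini-proteins were under 80 residues, had no cysteine, sat in a PA-tagged cDNA display construct, and were kept only if AlphaFold2 dimer inter-PAE was above 15. From the counts, Bayesian fitting gave K50, and unfolding free energy was derived against a sequence-predicted unfolded-state K50 and a shared folded-state K50, per protease or combined.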

[2] = folding stability dG unfold from chymotrypsin proteolysis; higher = more stable
Procedure, shortened: as §1

[3] = folding stability dG unfold (combined trypsin and chymotrypsin); higher = more stable
Procedure, shortened: as §1

Sequence | folding stability dG unfold [1] [kcal/mol] | folding stability dG unfold [2] [kcal/mol] | folding stability dG unfold [3] [kcal/mol]
SAGGSAGGSAGGKIVIELPKELEGLTAEELAELLKKEFGEKGLKVTVVEKDGKLYLVIDSAGGSAGGSAGGS [r10_579_TrROS_Hall] | 3.43 ± 0.25 | 3.34 ± 0.15 | 3.5 ± 0.24
SAMPIDITVEGVERPPDSVVVHLRLDPSVPSDLAVTVKVRGADGTVLEVPAEDRTATLRVPSSDVVVDLSAG [r14_350_JUSTAS] | 0.387 ± 0.11 | 0.912 ± 0.24 | 0.78 ± 0.16
SAGGSAGGSAGGSKKTLTLPITITVTVTYTNEDGSTTETTYTYTLTINFEVSENDTGLLSAGGSAGGSAGGS [r10_1133_TrMRF] | 2.23 ± 0.062 | 3.269 ± 0.013 | 2.92 ± 0.071
PSVVYLVLRRPEGGPVRSFRFPVPDRGEPGFEEVLDLIERVTGVSRGALRKNVRIVPVPETGDVLVVADLSS [r1_285_TrMRF] | 2.052 ± 0.014 | 1.52 ± 0.058 | 1.88 ± 0.065
SMTLIVRVEVENENGEKIEKEVEVEVEPGETIEELLKKLNLSEEEVKKVKIEVYVIKDGKLEKKEFTLEKSA [r9_755_TrROS_Hall] | 1.29 ± 0.2 | 2.61 ± 0.077 | 2.29 ± 0.35
MVVTVETTMIDPEGNPLTKTFTVPSSVVEALKEAGKPLTKEELEKLVKEKVEAEAKKYNVSVEVTLVSFERS [r1_174_JUSTAS] | 2.21 ± 0.17 | 2.7 ± 0.066 | 2.6 ± 0.27
SPLERLLRAILNAPADTTIVVPLPDDLVAVIRIEPATTELDGVPYRFLVARIEIRNPDGVLLGELTLVLPLS [r1_386_TrMRF] | 3.88 ± 0.086 | 5.78 ± 0.091 | 5.63 ± 0.11
SAGKKLIEAAKNNKKAVIPVKYKKYKITEKYKTKDGGTKYKAKLIEEKTYNVKLIKVDPKTGKIIIDPKSAG [r5_5_TrMRF] | 1.07 ± 0.13 | 1.82 ± 0.28 | 1.75 ± 0.92
SAGGSAGGSAGMRLVTFTVPGSAISVSTPGGATVVSVEKLPGDLVRVTVEIPEGAPPGLQSAGGSAGGSAGG [r17_48_JUSTAS] | 1.12 ± 0.013 | 1.76 ± 0.029 | 1.56 ± 0.046
SAGGSAGGSAGGMVIVTFPDGSVREVEVLETEPDGTVVVAPPDRPVETLSGAGLTLTPVPSAGGSAGGSAGG [r7_823_JUSTAS] | 1.19 ± 0.071 | -0.524 ± 0.13 | 0.59 ± 0.07
SAGGFKIERDPEDGQVTITFPMPGFGMPFRISIPYDPNGDIDVDIEPSPGMPPHHRDMIENLARELADSAGG [r13_139_TrROS] | 0.656 ± 0.16 | 0.281 ± 0.43 | 0.562 ± 0.13
SAGGSVTKEELEKLNVEEVAALLPEDYTVTVVPGTGVVVISAPDRTLTITHDPATGKVTLTSEVEVSAGGSA [r2_470_JUSTAS] | 1.41 ± 0.1 | 0.125 ± 0.21 | 0.797 ± 0.15
SAGGMEYDPETKTFHLHVPGGNLPELREAIENAPDRLVTIEVEDPLTDKPRLFTLPAEEARKFLEAGSAGGS [r16_797_TrMRF] | -0.182 ± 0.12 | -0.455 ± 0.25 | -0.254 ± 0.095
SAGRITIDPEDWRIEVKPPNGKKREISPDKIQELLREQKQKGKPPTAEEIAEKIMDEFPGYEVEIHPRSAGG [r19_46_TrROS] | 0.894 ± 0.1 | 1.22 ± 0.073 | 1.06 ± 0.3
SAGGSMRLVERTFVPVKTFTFLSTFNLIQPPGVPVPTFTTLTVVFTPVFTRLVEVVTEPPGRVVEVLLSAGG [r13_148_JUSTAS] | 3.73 ± 0.15 | 4.33 ± 0.13 | 4.06 ± 0.21
SAGGSAGGSAGMKPGEKVLLVKIKIKNENGEEETILVEMSLEELKKLLEEENIEVEILELSAGGSAGGSAGG [r17_313_TrROS_Hall] | 3.88 ± 0.17 | 2.27 ± 0.039 | 3.03 ± 0.1
SAGGSAGGGSLTVTTDPDGTQTVTLPDGRTFTFTNPYGVTRLVRARPDDGFEVWLQVDGKWYPLSAGGSAGG [r6_903_TrMRF] | 0.96 ± 0.022 | 1.88 ± 0.053 | 1.57 ± 0.031
SAGGSAGVVKGRIEITFVVPPDAPGVEELARETVKRIGFDAENVEILKVERLPDGSYRVTLLLDAPSAGGSA [r15_654_TrMRF] | 3.17 ± 0.059 | 4.47 ± 0.052 | 4.21 ± 0.071
SAMPVLVVIKRTVVLPRPGEELAKYEDPDGKVRRRVVVETLVVEVNPEDLPELVEFFKSLGIDEISVFGSAG [r14_509_TrMRF] | 2.18 ± 0.039 | 2.22 ± 0.031 | 2.13 ± 0.11
SGSFASVTEDSLPDGGGYIVATEVSTGASRVYPPGTVVAEPAPADSTLVETLYDPATGEPLSTTTRTVAASA [r9_209_JUSTAS] | -0.712 ± 0.2 | 0.00381 ± 0.13 | -0.0457 ± 0.11
SAGGKVLVFYAPSPELIEKWAKELGLKLKKVSKEGDKFVAEFELPSGEKVLVVADEEAFKKLGIDPEKISAG [r5_12_TrMRF] | 2.93 ± 0.1 | 4.09 ± 0.12 | 3.74 ± 0.18

Sequence | folding stability dG unfold [1] [kcal/mol] | folding stability dG unfold [2] [kcal/mol] | folding stability dG unfold [3] [kcal/mol]
SAGGSAGGSEEEVEIKVVEPVDVVVLPDGTVRRTFRVEDGALLVITVHFPPDGNPVGEIEIFPSAGGSAGGS [r20_240_TrMRF] | 1.56 ± 0.032 | 1.64 ± 0.04 | 1.68 ± 0.16
SAGGSAGGSEITLVFKTKEEAEKAAEELAKKYNVEVTVEENEETGLYVVTIKLPENGKEITILSAGGSAGGS [r12_635_TrROS_Hall] | 1.68 ± 0.064 | 2.03 ± 0.059 | 1.96 ± 0.19
SAGGSAGGSAGMPIKTLKTTLVSVEKEPPGEGSYITTKSVTEFPDGSKSVTTTTVPASLLSAGGSAGGSAGG [r17_268_JUSTAS] | -0.653 ± 0.59 | -0.228 ± 0.27 | -0.576 ± 0.44
SAGGMHHLEIYRFEDRKLVVLHLEDKPVVIEVEPGLTEEEAAEKAIEALKEAFPDKEIVIDSVEVKEESAGG [r13_884_TrMRF] | -0.0489 ± 0.064 | 0.41 ± 0.11 | 0.217 ± 0.11
SAGMPLASVEVEIEKLPDGTYRVRARITIWDPVTGKPLREVEFEGPFESPEAAEAEALKKALEVLEADSAGG [r19_255_TrMRF] | 4.25 ± 0.18 | 4 ± 0.11 | 4.06 ± 0.13
SAGGSAKFKIVKIEKIEIEENGTIKIKVKLEDGSTFEIEIKVKIIPPPKPKKISLEELSEEERKKLSAGGSA [r15_41_TrROS_Hall] | 1.29 ± 0.053 | 2.11 ± 0.097 | 1.8 ± 0.13
SAGGSPSTARTVELEFNPNEVTLEKIKELLEELGFKGITSITVESTPDSLTITLTDPNGAPSVVRVISAGGS [r8_86_JUSTAS] | 2.05 ± 0.049 | 2.66 ± 0.075 | 2.43 ± 0.047
SAGKRTIMIPFNVKPNQIRNIAKDIVEMHPGWKIKSIKVFNPNNGEPQELPLGDVPPNEPVWIKVEIEPSAG [r5_357_TrROS] | 2.36 ± 0.1 | 2.21 ± 0.05 | 2.29 ± 0.15
SAGMEEVEITIKITIEVPEGEEVTPEELAEALREAGFEIVEVKVEKTEDGRKRVTVEIKIRLTPEELEKSAG [r5_167_TrROS_Hall] | 2.31 ± 0.2 | 2.02 ± 0.15 | 2.23 ± 0.19
SAGGSAMIEVKIEVPDDASEEEKAELAEKIKKEIKASGVEPTENGIPVKKSLENVEVKVTFLKKKKSAGGSA [r15_717_JUSTAS] | -0.469 ± 0.2 | 0.074 ± 0.33 | -0.196 ± 0.38
SIFRIRMPGNREFRIFIPPDGMVNVSMPNGKKHTHPFKDKEDAKEIADVLSKHFPNMPVEIEPIPPDDIKSA [r9_1206_TrROS] | 1.26 ± 0.11 | 0.166 ± 0.91 | 0.793 ± 0.37
SAGGMIIIKFKTKEQAKKAIEAAKKGKEIEITLKDGKKIKAKVVKVEEKPNYVYLVIKTEDGKEIKFSAGGS [r16_254_TrROS_Hall] | 2.16 ± 0.086 | 2.42 ± 0.038 | 2.31 ± 0.12
SAGGSAGGSASFTTTPVQFPDNTRVTTVTLDPETGTTIATVTSPSATSLVTIPGDTTTLTGSSAGGSAGGSA [r18_212_JUSTAS] | 0.551 ± 0.023 | -0.246 ± 0.087 | 0.286 ± 0.045
YMVFIRIEVEDPKNGEEKAEIPIPIPIPPGDLKNMPPEDREKMIEEAKYFAEELAEEKGNVKIKPEIQWFES [r1_115_TrROS] | -0.246 ± 0.19 | -0.226 ± 0.66 | -0.0293 ± 0.23
SAGGSAGGSAEIKIEYTLAPDGTLYVKVEIPNPETGETLVLEGPFDSLEEAIEVAKELEKESAGGSAGGSAG [r3_174_TrMRF] | 2.29 ± 0.23 | 2.77 ± 0.056 | 2.68 ± 0.18
SAGGSAGGSKKVYLKVTVYHKNGKKTTLEIGPITDEDGKPIETYAKELAEHPDVEKVEVEVLGSAGGSAGGS [r12_199_TrMRF] | 3.79 ± 0.13 | 4.19 ± 0.13 | 4.05 ± 0.17
SAGGSAGGSADDGDPNKQEPKPEVKVRPIEIRMSFAYYPPNGEPWMFSIEIRIWVYDGGLVSAGGSAGGSAG [r3_380_TrROS] | 3.85 ± 0.1 | 5.61 ± 0.095 | 5.34 ± 0.16
SAGGMPPENPAVVKVLAQKQKFEDLVKELKEKGIEAKLEKIEVVPETGKVTVTIKLPDGKEIVITIESAGGS [r8_277_JUSTAS] | 1.62 ± 0.11 | 1.16 ± 0.064 | 1.33 ± 0.21
SMKITPLPGPEEVAEFPETGETITITRDPSTGLVTVTYNGPGTPVTATTDPAVGTVTVNTPDGKITIPLTSA [r9_541_JUSTAS] | 0.669 ± 0.02 | -0.512 ± 0.22 | 0.346 ± 0.072
SAGGSAGGSASMTSSVSTSLNPDNPPVVLVTTTYPDGTVTLTVKDLSTGTTTSTTTTPLPSSAGGSAGGSAG [r3_299_JUSTAS] | 1.17 ± 0.042 | 0.589 ± 0.043 | 0.893 ± 0.059
SAGGSAGGSAGGSMVSVEEFEVELPGGSKVKATVLIDPEGPLTVLLGDETFILPKEELGSAGGSAGGSAGGS [r10_649_JUSTAS] | -0.22 ± 0.2 | -0.229 ± 0.19 | -0.118 ± 0.13
